The target in the data set is T1, Myocilin tagged at its C-terminus with S-peptide, Q99972.
T1 chain: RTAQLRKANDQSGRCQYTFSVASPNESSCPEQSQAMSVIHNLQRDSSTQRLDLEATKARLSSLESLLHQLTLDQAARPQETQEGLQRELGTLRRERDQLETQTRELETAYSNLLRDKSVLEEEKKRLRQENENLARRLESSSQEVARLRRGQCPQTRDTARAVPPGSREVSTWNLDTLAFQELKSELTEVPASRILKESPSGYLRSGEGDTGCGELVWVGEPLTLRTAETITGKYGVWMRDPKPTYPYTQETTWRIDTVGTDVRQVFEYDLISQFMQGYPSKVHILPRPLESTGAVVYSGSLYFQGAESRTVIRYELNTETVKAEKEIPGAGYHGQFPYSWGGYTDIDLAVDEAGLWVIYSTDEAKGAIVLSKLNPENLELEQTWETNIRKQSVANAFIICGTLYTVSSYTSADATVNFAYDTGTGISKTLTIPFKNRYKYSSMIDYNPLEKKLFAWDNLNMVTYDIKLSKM

B1: S-protein (protein)
chain: SSSNYCNQMMKSRNLTKDRCKPVNTFVHESLADVQAVCSQKNVACKNGQTNCYQSYSTMSITDCRETGSSKYPNCAYKTTQANKHIIVACEGNPYVPVHFDASV
For the protein B1, the “RNAase analysis of culture medium (enzymatic recombination assay)” value is reported as “the assay can detect secreted myocilin in less than 1 µl of media”.

Values taken from US20070270486.
